Test results: PMC13544220, “Glycemic and bodyweight effects of GIPR coding variation reflect differences in surface expression and intrinsic functional impairment” (Science Advances, 2026)

How the values were obtained:
Assay type in all cases: cell-based, human
[1] = system: wild-type and variant SNAP-GIPR; assay: Surface SNAP-GIPR expression (SNAP-tag labelling) in AD293 cells; details: for AD293 Surface: Fig S3E, mean; for Surface SNAP-GIPR expression: sheet Fig 1C;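 on all read-outs here: scaled to the experimental average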
Procedure, shortened: (§1)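 Read-out: whole-cell fluorescence of surface-only SNAP label (Alexa Fluor 647, 500 nM, 10 min, RT), wide-field 20X, several FOVs per well. Flat-field corrected, phase-contrast masked, nontransfected-well signal subtracted; normalized to experiment mean or wild-type.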

[2] = system: wild-type and variant SNAP-GIPR; assay: Constitutive and agonist-mediated internalization, reversible SNAP-tag labelling, AD293 cells; design: key to Internalisation, Vehicle / Internalisation, +GIP / Internalisation, GIP-only: % internalization: residual fluorescence after Mesna vs pre-Mesna; Surface expression: unit not given here; details: Mean; for +GIP internalisation (100 nM) / GIP-specific internalisation (100 nM) / Constitutive internalisation (100 nM) / Surface expression: Fig 4E; for +GIP internalisation (100 nM) / GIP-specific internalisation (100 nM): GIP 100 nM; for Internalisation, +GIP / Internalisation, GIP-only / Internalisation, Vehicle: Fig S4C, AD293
Procedure, shortened: (§2)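 Percentage internalization is read as the fraction of specific SNAP fluorescence that survives Mesna stripping, compared with the image taken before Mesna. Wells are imaged in TNE buffer at pH 8.6 and again after 10 min.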

[3] = system: wild-type and variant SNAP-GIPR; assay: Constitutive and agonist-mediated internalization, reversible SNAP-tag labelling, INS-1 cells; design: key to Internalisation, GIP-only / Internalisation, Vehicle / Internalisation, +GIP: % internalization: residual fluorescence after Mesna vs pre-Mesna; details: Mean; for +GIP internalisation (100 nM) / GIP-specific internalisation (100 nM) / Constitutive internalisation (100 nM): Fig 4G; for +GIP internalisation (100 nM) / GIP-specific internalisation (100 nM): GIP 100 nM; for Internalisation, +GIP / Internalisation, GIP-only / Internalisation, Vehicle: Fig S4C, INS-1
Procedure, shortened: as §2

[4] = system: wild-type and variant SNAP-GIPR; assay: cADDis cAMP imaging in AD293 cells, ensemble, expression-matched and per decile; details: Fig S3F, cADDis, mean;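 further: Ensemble cells as % of IBMX/FSK response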
Procedure, shortened: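 AD293 cells reverse-transfected with wild-type or variant SNAP-GIPR plus cADDis Green Up sensor, variants run in parallel. After 24 h, surface receptor labelled with SNAP-Surface Alexa Fluor 647 (500 nM); single-cell cADDis fluorescence imaged at 37 °C in KRBH, 6 mM glucose, 0.1% BSA. Responses given ensemble, expression-matched by wild-type deciles, or per own decile.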

[5] = system: wild-type and variant SNAP-GIPR; assay: Surface SNAP-GIPR expression (SNAP-tag labelling) in INS-1 cells; details: Fig 4G; Mean
Procedure, shortened: as §1

[6] = system: wild-type and variant SNAP-GIPR; assay: Single-concentration GIP cAMP response by HTRF in AD293 cells; details: Fig S3F, HTRF, mean;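 further: ratio to experiment-wide average response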
Procedure: (§3) All variants were tested in parallel on each occasion to control for transfection efficiency differences between experiments.

[7] = system: wild-type and variant SNAP-GIPR; assay: Single-concentration GIP cAMP response by HTRF in INS-1 cells; details: Fig S3E, mean
Procedure: as §3

[8] = column repeated, paired with cAMP 100 nM

B1: D66G (protein, UniProt P48546 22-466, looked up, variant D66G)
Gastric inhibitory …: RAETGSKGQTAGELYQRWERYRRECQETLAAAEPPSGLACNGSFGMYVCWDYAAPNATARASCPWYLPWHHHVAAGFVLRQCGSDGQWGLWRDHTQCENPEKNEAFLDQRLILERLQVMYTVGYSLSLATLLLALLILSLFRRLHCTRNYIHINLFTSFMLRAAAILSRDRLLPRPGPYLGDQALALWNQALAACRTAQIVTQYCVGANYTWLLVEGVYLHSLLVLVGGSEEGHFRYYLLLGWGAPALFVIPWVIVRYLYENTQCWERNEVKAIWWIIRTPILMTILINFLIFIRILGILLSKLRTRQMRCRDYRLRLARSTLTLVPLLGVHEVVFAPVTEEQARGALRFAKLGFEIFLSSFQGFLVSVLYCFINKEVQSEIRRGWHHCRLRRSLGEEQRQLPERAFRALPSGSGPGEVPTSRGLSSGTLPGPGNEASRELESYC
AD293 Surface [1, 8]: 0.2845 | AD293 Surface ([1]; paired with cAMP 100 pM): 0.2845 | Surface SNAP-GIPR expression ([1]; replicate 1): 0.2625 | Surface SNAP-GIPR expression ([1]; replicate 2): 0.397 | Surface SNAP-GIPR expression ([1]; replicate 3): 0.1659 | Surface SNAP-GIPR expression ([1]; replicate 4): 0.02117 | Surface SNAP-GIPR expression ([1]; replicate 5): 0.3372 | Surface SNAP-GIPR expression ([1]; replicate 6): 0.161 | Surface SNAP-GIPR expression ([1]; replicate 7): 0.3578 | Surface SNAP-GIPR expression ([1]; replicate 8): 0.377 | Surface SNAP-GIPR expression ([1]; replicate 9): 0.35 | Surface SNAP-GIPR expression ([1]; replicate 10): 0.5096 | Surface SNAP-GIPR expression ([1]; replicate 11): 0.4534 | Surface SNAP-GIPR expression ([1]; replicate 12): 0.5149 | Surface SNAP-GIPR expression ([1]; replicate 13): 0.197 | Surface SNAP-GIPR expression ([1]; replicate 14): 0.2293 | Surface SNAP-GIPR expression ([1]; replicate 15): 0.3425 | Surface SNAP-GIPR expression ([1]; replicate 16): 0.4052 | Surface SNAP-GIPR expression ([1]; replicate 17): 0.4309 | Surface SNAP-GIPR expression ([1]; replicate 18): 0.3854 | Surface SNAP-GIPR expression ([1]; replicate 19): 0.4111 | Surface SNAP-GIPR expression ([1]; replicate 20): 0.3991 | Surface SNAP-GIPR expression ([1]; replicate 21): 0.5534 | Surface SNAP-GIPR expression ([1]; replicate 22): 0.4128 | Surface SNAP-GIPR expression ([1]; replicate 23): 0.3708 | Surface SNAP-GIPR expression ([1]; replicate 24): 0.3827 | Surface SNAP-GIPR expression ([1]; replicate 25): 0.2399 | Surface SNAP-GIPR expression ([1]; replicate 26): 0.2568 | Surface SNAP-GIPR expression ([1]; replicate 27): 0.1279 | Surface SNAP-GIPR expression ([1]; replicate 28): 0.1278 | Surface SNAP-GIPR expression ([1]; replicate 29): 0.1867 | Surface SNAP-GIPR expression ([1]; replicate 30): 0.2491 | Surface SNAP-GIPR expression ([1]; replicate 31): 0.2077 | Surface SNAP-GIPR expression ([1]; replicate 32): 0.1171 | Surface SNAP-GIPR expression ([1]; replicate 33): 0.1153 | Surface SNAP-GIPR expression ([1]; replicate 34): 0.2022 | Surface SNAP-GIPR expression ([1]; replicate 35): 0.2952 | Surface SNAP-GIPR expression ([1]; replicate 36): 0.2071 | Surface SNAP-GIPR expression ([1]; replicate 37): 0.2146 | Surface SNAP-GIPR expression ([1]; replicate 38): 0.1357 | Surface SNAP-GIPR expression ([1]; replicate 39): 0.1562 | Surface SNAP-GIPR expression ([1]; replicate 40): 0.1831 | Surface SNAP-GIPR expression ([1]; replicate 41): 0.2136 | +GIP internalisation (100 nM) [2]: 0.106 | GIP-specific internalisation (100 nM) [2]: -0.001031 | Constitutive internalisation (100 nM) [2]: 0.1071 | Surface expression [2]: 0.1742 | Internalisation, +GIP [2]: 61.627 | Internalisation, GIP-only [2]: -0.8775 | Internalisation, Vehicle [2]: 62.5045 | +GIP internalisation (100 nM) [3]: 0.08951 | GIP-specific internalisation (100 nM) [3]: -0.01151 | Constitutive internalisation (100 nM) [3]: 0.101 | Internalisation, +GIP [3]: 50.62 | Internalisation, GIP-only [3]: -7.618 | Internalisation, Vehicle [3]: 58.2383 | AD293 100 pM cADDis [4]: -0.704 | AD293 100 nM cADDis [4]: 4.118 | Surface expression [5]: 0.1735 | AD293 100 pM HTRF [6]: 0.1227 | AD293 100 nM HTRF [6]: 0.328 | INS-1 cAMP (100 nM) [7]: -0.2661

B2: R341P (protein, UniProt P48546 22-466, looked up, variant R341P)
Gastric inhibitory …: RAETGSKGQTAGELYQRWERYRRECQETLAAAEPPSGLACNGSFDMYVCWDYAAPNATARASCPWYLPWHHHVAAGFVLRQCGSDGQWGLWRDHTQCENPEKNEAFLDQRLILERLQVMYTVGYSLSLATLLLALLILSLFRRLHCTRNYIHINLFTSFMLRAAAILSRDRLLPRPGPYLGDQALALWNQALAACRTAQIVTQYCVGANYTWLLVEGVYLHSLLVLVGGSEEGHFRYYLLLGWGAPALFVIPWVIVRYLYENTQCWERNEVKAIWWIIRTPILMTILINFLIFIRILGILLSKLRTRQMRCRDYRLRLAPSTLTLVPLLGVHEVVFAPVTEEQARGALRFAKLGFEIFLSSFQGFLVSVLYCFINKEVQSEIRRGWHHCRLRRSLGEEQRQLPERAFRALPSGSGPGEVPTSRGLSSGTLPGPGNEASRELESYC
AD293 Surface [1, 8]: 0.2494 | AD293 Surface ([1]; paired with cAMP 100 pM): 0.2494 | Surface SNAP-GIPR expression ([1]; replicate 1): 0.3004 | Surface SNAP-GIPR expression ([1]; replicate 2): 0.416 | Surface SNAP-GIPR expression ([1]; replicate 3): 0.1222 | Surface SNAP-GIPR expression ([1]; replicate 4): 0.3179 | Surface SNAP-GIPR expression ([1]; replicate 5): 0.375 | Surface SNAP-GIPR expression ([1]; replicate 6): 0.2191 | Surface SNAP-GIPR expression ([1]; replicate 7): 0.3629 | Surface SNAP-GIPR expression ([1]; replicate 8): 0.2975 | Surface SNAP-GIPR expression ([1]; replicate 9): 0.196 | Surface SNAP-GIPR expression ([1]; replicate 10): 0.2642 | Surface SNAP-GIPR expression ([1]; replicate 11): 0.31 | Surface SNAP-GIPR expression ([1]; replicate 12): 0.2856 | Surface SNAP-GIPR expression ([1]; replicate 13): 0.6221 | Surface SNAP-GIPR expression ([1]; replicate 14): 0.2061 | Surface SNAP-GIPR expression ([1]; replicate 15): 0.2357 | Surface SNAP-GIPR expression ([1]; replicate 16): 0.2383 | Surface SNAP-GIPR expression ([1]; replicate 17): 0.211 | Surface SNAP-GIPR expression ([1]; replicate 18): 0.144 | Surface SNAP-GIPR expression ([1]; replicate 19): 0.3559 | Surface SNAP-GIPR expression ([1]; replicate 20): 0.2316 | Surface SNAP-GIPR expression ([1]; replicate 21): 0.2368 | Surface SNAP-GIPR expression ([1]; replicate 22): 0.1783 | Surface SNAP-GIPR expression ([1]; replicate 23): 0.2272 | Surface SNAP-GIPR expression ([1]; replicate 24): 0.2138 | Surface SNAP-GIPR expression ([1]; replicate 25): 0.2383 | Surface SNAP-GIPR expression ([1]; replicate 26): 0.2262 | Surface SNAP-GIPR expression ([1]; replicate 27): 0.2274 | Surface SNAP-GIPR expression ([1]; replicate 28): 0.2002 | Surface SNAP-GIPR expression ([1]; replicate 29): 0.197 | Surface SNAP-GIPR expression ([1]; replicate 30): 0.3017 | Surface SNAP-GIPR expression ([1]; replicate 31): 0.1334 | Surface SNAP-GIPR expression ([1]; replicate 32): 0.2186 | Surface SNAP-GIPR expression ([1]; replicate 33): 0.2522 | Surface SNAP-GIPR expression ([1]; replicate 34): 0.2282 | Surface SNAP-GIPR expression ([1]; replicate 35): 0.2532 | Surface SNAP-GIPR expression ([1]; replicate 36): 0.1015 | Surface SNAP-GIPR expression ([1]; replicate 37): 0.1446 | Surface SNAP-GIPR expression ([1]; replicate 38): 0.2212 | Surface SNAP-GIPR expression ([1]; replicate 39): 0.2317 | Surface SNAP-GIPR expression ([1]; replicate 40): 0.2075 | Surface SNAP-GIPR expression ([1]; replicate 41): 0.2741 | +GIP internalisation (100 nM) [2]: 0.1278 | GIP-specific internalisation (100 nM) [2]: 0.02136 | Constitutive internalisation (100 nM) [2]: 0.1065 | Surface expression [2]: 0.1733 | Internalisation, +GIP [2]: 72.1567 | Internalisation, GIP-only [2]: 15.7264 | Internalisation, Vehicle [2]: 56.4303 | +GIP internalisation (100 nM) [3]: 0.1423 | GIP-specific internalisation (100 nM) [3]: 0.02008 | Constitutive internalisation (100 nM) [3]: 0.1222 | Internalisation, +GIP [3]: 48.645 | Internalisation, GIP-only [3]: 6.527 | Internalisation, Vehicle [3]: 42.1183 | AD293 100 pM cADDis [4]: 0.6137 | AD293 100 nM cADDis [4]: 9.179 | Surface expression [5]: 0.2942 | AD293 100 pM HTRF [6]: 0.001435 | AD293 100 nM HTRF [6]: 0.1915 | INS-1 cAMP (100 nM) [7]: -0.2249
